Data published in PMC5066947, “Voltage-Dependent Anion Channel-1, a Possible Ligand of Plasminogen Kringle 5” (PLoS ONE, 2016).

Target: T1, recombinant voltage-dependent anion channel-1 (human, UniProt P21796 1-283)
T1 construct: human voltage-dependent anion channel-1; cDNA amplified from pCMV6-XL5-VDAC-1 with primers designed on NM_003374, cloned into pET-28b by XhoI and NheI; band at about 32 kDa on SDS-PAGE; also called VDAC-1; hVDAC-1
Test: SPR; Kringle 5 coupled to a CM5 sensor chip by amino coupling (180 RU); VDAC-1 injected at 0 to 280.00 μmol·L^-1; uncoupled cell as reference; 25°C, 40 μl·min^-1; regeneration with 10 mmol·L^-1 HEPES pH 7.4, 300 mmol·L^-1 NaCl
Conditions: both partners purified

T1 sequence (P21796 whole entry): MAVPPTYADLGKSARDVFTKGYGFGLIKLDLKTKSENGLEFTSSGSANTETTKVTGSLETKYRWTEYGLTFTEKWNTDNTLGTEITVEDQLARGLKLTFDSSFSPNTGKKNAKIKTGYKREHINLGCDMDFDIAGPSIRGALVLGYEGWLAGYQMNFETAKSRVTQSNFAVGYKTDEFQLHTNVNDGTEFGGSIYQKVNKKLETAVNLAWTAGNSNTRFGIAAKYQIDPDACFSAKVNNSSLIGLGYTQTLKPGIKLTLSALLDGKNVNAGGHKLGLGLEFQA

- Ka: 2430 M⁻¹
B1: recombinant plasminogen Kringle 5 (domain or fragment, human)
chain: DCMFGNGKGYRGKRATTVTGTPCQDWAAQEPHRHSIFTPETNPRAGLEKNYCRNPDGDVGGPWCYTTNPRKLYDYCDVPQCAAP
notes: fifth kringle domain of plasminogen, about 80 amino acid residues; expressed from pET-28b-hK5; band at about 8 kDa on SDS-PAGE; The vector pET-28b-hK5 was built in the authors' laboratory; neither the residue limits nor the end of the 6 x His tag are told; also called hK5; source: E. coli BL21 (DE3), soluble, purified (Ni2+-chelated Sepharose 6 Fast Flow, Sephadex G-25)
